Biological target: T1, SARS-CoV-2 native Spike (S) trimer (Acro Biosystems) (SARS-CoV-2, UniProt P0DTC2 16-1213)
T1 construct: also called Spike trimer
Experiment: ELISA on spike trimer

B1: AB-009681 (antibody, V domains shown)
VH: QVQLVQSGAEVKKPGSSVKVSCKASGGTFSSYAISWVRQAPGQGLEWMGGIIPIFGTANYAQKFQGRVTITADESTSTAYMELSSLRSEDTAVYYCASVGGDYDLDYWGQGTLVTVSS
VL: EIVLTQSPATLSLSPGERATLSCRASQSVSSYLAWYQQKPGQAPRLLIYDASNRATGIPARFSGSGSGTDFTLTISSLEPEDFAVYYCQQRSNWPPYTFGQGTKLEIK
- binding result: no binding

— patent publication US20240301038A1 (ATRECA, published 2024)
